Measured values taken from patent publication US20120172293A1 (Takeda / Millennium, published 2012).
Starred links: 1 amine or outer side, 2 acyl side, 3 side chain; linkers in the order of their positions; H or OH if unused. Non-standard residues stand in square brackets, D forms with d. No end group written: not given here. Phe(3R-OH) = O=C([C@@H](N[*:1])[C@H](O[*:3])c1ccccc1)[*:2]; tBuAla = CC(C)(C)C[C@H](N)C(=O)O; Cha = N[C@@H](CC1CCCCC1)C(=O)O; hLeu = CC(C)CC[C@H](N)C(=O)O; 4Amb = NCc1ccc(C(=O)O)cc1; Nle = CCCC[C@H](N)C(=O)O; Aib = CC(C)(N)C(=O)O

T1: human Y2 receptor (human, UniProt P49146 1-381)
T1 sequence (looked up): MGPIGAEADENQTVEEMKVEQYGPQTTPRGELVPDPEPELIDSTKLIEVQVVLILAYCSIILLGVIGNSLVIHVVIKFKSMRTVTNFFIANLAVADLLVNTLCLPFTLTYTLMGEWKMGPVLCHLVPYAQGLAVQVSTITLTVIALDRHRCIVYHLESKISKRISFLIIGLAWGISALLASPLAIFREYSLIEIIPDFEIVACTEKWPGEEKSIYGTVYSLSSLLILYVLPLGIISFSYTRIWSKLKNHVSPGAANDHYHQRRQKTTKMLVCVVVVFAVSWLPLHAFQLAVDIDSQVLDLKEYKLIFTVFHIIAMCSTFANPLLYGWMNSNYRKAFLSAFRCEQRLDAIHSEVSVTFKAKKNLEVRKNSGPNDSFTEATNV

B1: Ac-[D-Pro24, Cha27,28, Aib31, Leu(Me)36]-PYY(23-36) (peptide)
peptide: Ac-S[dP]RH[Cha][Cha]NL[Aib]TRQR[tBuAla]-NH2
SMILES: CC(=O)N[C@@H](CO)C(=O)N1CCC[C@@H]1C(=O)N[C@@H](CCCNC(=N)N)C(=O)N[C@@H](Cc1c[nH]cn1)C(=O)N[C@@H](CC1CCCCC1)C(=O)N[C@@H](CC1CCCCC1)C(=O)N[C@@H](CC(N)=O)C(=O)N[C@@H](CC(C)C)C(=O)NC(C)(C)C(=O)N[C@H](C(=O)N[C@@H](CCCNC(=N)N)C(=O)N[C@@H](CCC(N)=O)C(=O)N[C@@H](CCCNC(=N)N)C(=O)N[C@@H](CC(C)(C)C)C(N)=O)[C@@H](C)O
notes: also called compound No. 198
B2: 4-Aminomethylbenzoyl-[Ala26, Ile28,31, Tyr30]-PYY(25-36) (peptide)
peptide: [4Amb]RAYINYITRQRY-NH2
modifications: N-terminus assumed
SMILES: CC[C@H](C)[C@H](NC(=O)[C@H](Cc1ccc(O)cc1)NC(=O)[C@H](C)NC(=O)[C@H](CCCNC(=N)N)NC(=O)c1ccc(CN)cc1)C(=O)N[C@@H](CC(N)=O)C(=O)N[C@@H](Cc1ccc(O)cc1)C(=O)N[C@H](C(=O)N[C@H](C(=O)N[C@@H](CCCNC(=N)N)C(=O)N[C@@H](CCC(N)=O)C(=O)N[C@@H](CCCNC(=N)N)C(=O)N[C@@H](Cc1ccc(O)cc1)C(N)=O)[C@@H](C)O)[C@@H](C)CC
notes: also called compound No. 57
B3: 4-Aminomethylbenzoyl-[Gly26, Ile28,31]-PYY(25-36) (peptide)
peptide: [4Amb]RGYINLITRQRY-NH2
modifications: N-terminus assumed
SMILES: CC[C@H](C)[C@H](NC(=O)[C@H](Cc1ccc(O)cc1)NC(=O)CNC(=O)[C@H](CCCNC(=N)N)NC(=O)c1ccc(CN)cc1)C(=O)N[C@@H](CC(N)=O)C(=O)N[C@@H](CC(C)C)C(=O)N[C@H](C(=O)N[C@H](C(=O)N[C@@H](CCCNC(=N)N)C(=O)N[C@@H](CCC(N)=O)C(=O)N[C@@H](CCCNC(=N)N)C(=O)N[C@@H](Cc1ccc(O)cc1)C(N)=O)[C@@H](C)O)[C@@H](C)CC
notes: also called compound No. 50
B4: 4-Aminomethylbenzoyl-[Pro26, Ile28,31]-PYY(25-36) (peptide)
peptide: [4Amb]RPYINLITRQRY-NH2
modifications: N-terminus assumed
SMILES: CC[C@H](C)[C@H](NC(=O)[C@H](Cc1ccc(O)cc1)NC(=O)[C@@H]1CCCN1C(=O)[C@H](CCCNC(=N)N)NC(=O)c1ccc(CN)cc1)C(=O)N[C@@H](CC(N)=O)C(=O)N[C@@H](CC(C)C)C(=O)N[C@H](C(=O)N[C@H](C(=O)N[C@@H](CCCNC(=N)N)C(=O)N[C@@H](CCC(N)=O)C(=O)N[C@@H](CCCNC(=N)N)C(=O)N[C@@H](Cc1ccc(O)cc1)C(N)=O)[C@@H](C)O)[C@@H](C)CC
notes: also called compound No. 19
B5: 4-Aminomethylbenzoyl-[Ala26, Trp27, Ile28,31]-PYY(25-36) (peptide)
peptide: [4Amb]RAWINLITRQRY-NH2
modifications: N-terminus assumed
SMILES: CC[C@H](C)[C@H](NC(=O)[C@H](Cc1c[nH]c2ccccc12)NC(=O)[C@H](C)NC(=O)[C@H](CCCNC(=N)N)NC(=O)c1ccc(CN)cc1)C(=O)N[C@@H](CC(N)=O)C(=O)N[C@@H](CC(C)C)C(=O)N[C@H](C(=O)N[C@H](C(=O)N[C@@H](CCCNC(=N)N)C(=O)N[C@@H](CCC(N)=O)C(=O)N[C@@H](CCCNC(=N)N)C(=O)N[C@@H](Cc1ccc(O)cc1)C(N)=O)[C@@H](C)O)[C@@H](C)CC
notes: also called compound No. 51
B6: 4-Aminomethylbenzoyl-[Ala26, Trp28, Ile31]-PYY(25-36) (peptide)
peptide: [4Amb]RAYWNLITRQRY-NH2
modifications: N-terminus assumed
SMILES: CC[C@H](C)[C@H](NC(=O)[C@H](CC(C)C)NC(=O)[C@H](CC(N)=O)NC(=O)[C@H](Cc1c[nH]c2ccccc12)NC(=O)[C@H](Cc1ccc(O)cc1)NC(=O)[C@H](C)NC(=O)[C@H](CCCNC(=N)N)NC(=O)c1ccc(CN)cc1)C(=O)N[C@H](C(=O)N[C@@H](CCCNC(=N)N)C(=O)N[C@@H](CCC(N)=O)C(=O)N[C@@H](CCCNC(=N)N)C(=O)N[C@@H](Cc1ccc(O)cc1)C(N)=O)[C@@H](C)O
notes: also called compound No. 23
B7: 4-Aminomethylbenzoyl-[Arg26, Ile28,31]-PYY(25-36) (peptide)
peptide: [4Amb]RRYINLITRQRY-NH2
modifications: N-terminus assumed
SMILES: CC[C@H](C)[C@H](NC(=O)[C@H](Cc1ccc(O)cc1)NC(=O)[C@H](CCCNC(=N)N)NC(=O)[C@H](CCCNC(=N)N)NC(=O)c1ccc(CN)cc1)C(=O)N[C@@H](CC(N)=O)C(=O)N[C@@H](CC(C)C)C(=O)N[C@H](C(=O)N[C@H](C(=O)N[C@@H](CCCNC(=N)N)C(=O)N[C@@H](CCC(N)=O)C(=O)N[C@@H](CCCNC(=N)N)C(=O)N[C@@H](Cc1ccc(O)cc1)C(N)=O)[C@@H](C)O)[C@@H](C)CC
notes: also called compound No. 18
B8: 4-Aminomethylbenzoyl-[Ala26, Phe28, Ile31]-PYY(25-36) (peptide)
peptide: [4Amb]RAYFNLITRQRY-NH2
modifications: N-terminus assumed
SMILES: CC[C@H](C)[C@H](NC(=O)[C@H](CC(C)C)NC(=O)[C@H](CC(N)=O)NC(=O)[C@H](Cc1ccccc1)NC(=O)[C@H](Cc1ccc(O)cc1)NC(=O)[C@H](C)NC(=O)[C@H](CCCNC(=N)N)NC(=O)c1ccc(CN)cc1)C(=O)N[C@H](C(=O)N[C@@H](CCCNC(=N)N)C(=O)N[C@@H](CCC(N)=O)C(=O)N[C@@H](CCCNC(=N)N)C(=O)N[C@@H](Cc1ccc(O)cc1)C(N)=O)[C@@H](C)O
notes: also called compound No. 22
B9: 4-Aminomethylbenzoyl-[Ala26, Ile31]-PYY(25-36) (peptide)
peptide: [4Amb]RAYLNLITRQRY-NH2
modifications: N-terminus assumed
SMILES: CC[C@H](C)[C@H](NC(=O)[C@H](CC(C)C)NC(=O)[C@H](CC(N)=O)NC(=O)[C@H](CC(C)C)NC(=O)[C@H](Cc1ccc(O)cc1)NC(=O)[C@H](C)NC(=O)[C@H](CCCNC(=N)N)NC(=O)c1ccc(CN)cc1)C(=O)N[C@H](C(=O)N[C@@H](CCCNC(=N)N)C(=O)N[C@@H](CCC(N)=O)C(=O)N[C@@H](CCCNC(=N)N)C(=O)N[C@@H](Cc1ccc(O)cc1)C(N)=O)[C@@H](C)O
notes: also called compound No. 20
B10: 4-Aminomethylbenzoyl-[Ala26, Ile28, Phe31]-PYY(25-36) (peptide)
peptide: [4Amb]RAYINLFTRQRY-NH2
modifications: N-terminus assumed
SMILES: CC[C@H](C)[C@H](NC(=O)[C@H](Cc1ccc(O)cc1)NC(=O)[C@H](C)NC(=O)[C@H](CCCNC(=N)N)NC(=O)c1ccc(CN)cc1)C(=O)N[C@@H](CC(N)=O)C(=O)N[C@@H](CC(C)C)C(=O)N[C@@H](Cc1ccccc1)C(=O)N[C@H](C(=O)N[C@@H](CCCNC(=N)N)C(=O)N[C@@H](CCC(N)=O)C(=O)N[C@@H](CCCNC(=N)N)C(=O)N[C@@H](Cc1ccc(O)cc1)C(N)=O)[C@@H](C)O
notes: also called compound No. 59
B11: Ac-[D-Pro24, Cha27,28, Aib31, homoLeu36]-PYY(23-36) (peptide)
peptide: Ac-S[dP]RH[Cha][Cha]NL[Aib]TRQR[hLeu]-NH2
SMILES: CC(=O)N[C@@H](CO)C(=O)N1CCC[C@@H]1C(=O)N[C@@H](CCCNC(=N)N)C(=O)N[C@@H](Cc1c[nH]cn1)C(=O)N[C@@H](CC1CCCCC1)C(=O)N[C@@H](CC1CCCCC1)C(=O)N[C@@H](CC(N)=O)C(=O)N[C@@H](CC(C)C)C(=O)NC(C)(C)C(=O)N[C@H](C(=O)N[C@@H](CCCNC(=N)N)C(=O)N[C@@H](CCC(N)=O)C(=O)N[C@@H](CCCNC(=N)N)C(=O)N[C@@H](CCC(C)C)C(N)=O)[C@@H](C)O
notes: also called compound No. 199
B12: 4-Aminomethylbenzoyl-[Ala26, Nle28, Ile31]-PYY(25-36) (peptide)
peptide: [4Amb]RAY[Nle]NLITRQRY-NH2
modifications: N-terminus assumed
SMILES: CCCC[C@H](NC(=O)[C@H](Cc1ccc(O)cc1)NC(=O)[C@H](C)NC(=O)[C@H](CCCNC(=N)N)NC(=O)c1ccc(CN)cc1)C(=O)N[C@@H](CC(N)=O)C(=O)N[C@@H](CC(C)C)C(=O)N[C@H](C(=O)N[C@H](C(=O)N[C@@H](CCCNC(=N)N)C(=O)N[C@@H](CCC(N)=O)C(=O)N[C@@H](CCCNC(=N)N)C(=O)N[C@@H](Cc1ccc(O)cc1)C(N)=O)[C@@H](C)O)[C@@H](C)CC
notes: also called compound No. 21
B13: Ac-[D-Pro24, Cha27,28, Aib31, threo-PhSer36]-PYY(23-36) (peptide)
peptide: Ac-S[dP]RH[Cha][Cha]NL[Aib]TRQR[Phe(3R-OH)]-NH2
SMILES: CC(=O)N[C@@H](CO)C(=O)N1CCC[C@@H]1C(=O)N[C@@H](CCCNC(=N)N)C(=O)N[C@@H](Cc1c[nH]cn1)C(=O)N[C@@H](CC1CCCCC1)C(=O)N[C@@H](CC1CCCCC1)C(=O)N[C@@H](CC(N)=O)C(=O)N[C@@H](CC(C)C)C(=O)NC(C)(C)C(=O)N[C@H](C(=O)N[C@@H](CCCNC(=N)N)C(=O)N[C@@H](CCC(N)=O)C(=O)N[C@@H](CCCNC(=N)N)C(=O)N[C@H](C(N)=O)[C@H](O)c1ccccc1)[C@@H](C)O
notes: also called compound No. 200

Tests used:
human Y2 receptor [1] = molecular target: T1, human Y2 receptor; experiment: cell-based or functional assay
human Y2 receptor [2] = molecular target: T1, human Y2 receptor; experiment: RBA: [125I]-PYY displacement, hY2R/CHO membranes
Procedure, shortened: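 Bound radioligand was collected by filtration on PEI-treated GF/C filters, washed with Tris/MgCl₂/NaCl/CHAPS buffer pH 7.4, and counted by scintillation; IC₅₀ values were calculated.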

Binder | GBA EC50 Ratio (vs PYY(3-36)), [35S]GTPγS (human Y2 receptor [1]) [ratio] | IC50 Ratio (vs PYY(3-36)) (human Y2 receptor [2]) [ratio]
B1 | 7.1 | 12
B2 | 1.9 | 2.8
B3 | 4.6 | 7.1
B4 | 25 | 45
B5 | 5.3 | 9.5
B6 | 5 | 3.4
B7 | 3 | 4
B8 | 3.5 | 4.1
B9 | 2 | 2.8
B10 | 6.6 | 16
B11 | 8.5 | 20
Ac-FRAYINLITRQRY-NH2 (also called compound No. 34) [Ac-[Phe24, Ala26, Ile28,31]-PYY(24-36)] | 14 | 25
Ac-PRAYINLITRQRY-NH2 (also called compound No. 38) [Ac-[Pro24, Ala26, Ile28,31]-PYY(24-36)] | 26 | 52
B12 | 3.6 | 4.1
B13 | 10 | 16
